This is an account of results in the nanobody polyreactivity screen of Harvey et al. (2022).

This data set is described as follows: yeast display, Sf9 membrane polyspecificity reagent, FACS + sequencing; frameworks hold sequencing errors. The method, boiled down: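 After 36–48 hours of galactose induction, yeast (Saccharomyces cerevisiae BJ5465) displaying a synthetic nanobody library were stained at 4 °C for 1 hour with 10% biotinylated, detergent-solubilized Sf9 membrane reagent. Streptavidin microbeads enriched the stained cells before FACS sorting into low and high (top ~1%) gates on anti-HA and streptavidin fluorescence. Each clone's polyreactivity label reflects its gate of origin.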
Consider “QVQLVESGGGLVQAGGSLRISCAASAHIFDYNAMGWYRQAPGKERELVAAITSGGTTTYADSVKGRFTISRDNAKNTVDLQMNSLKPEDTAVYYCNTYGQTDTYWRYYYWGQGTQVTVSS”, for which the “polyreactivity (PSR sort gate)” value was “high polyreactivity”.

As to “QVQLVESGGGLVQAGGSLRISCAASGFIFPFYAMGWYRQAPVKERELVATITSGGSTNYADSVKGRFTISRDNAKNTVYLQMNSQKPEDTAVYYCAAVIVPYGPSTFRVVGLDYWGQGTQVTVSS”, the “polyreactivity (PSR sort gate)” value is “low polyreactivity”.

For the sequence “QVQLVESGGGLVQAGGSLRISCAASGFIFRQYAMGWYRQAPGKERELVAAISRSGGSTYYADSVKGRFTISRDNAKNTVYLQMNSLKPEDTAVYYCNAVPRKYTDEFDYWGQGTQVTVSS”, the “polyreactivity (PSR sort gate)” value was “high polyreactivity”.

With “QVQLVESGGGLVQAGGSLRISCAASGFSFVWYAMGWYRQAPGKERELVAAINWSGGHTYYADSVKGRFTISRDNAKNTVYLQMNSQKPVETAVYYCNADSLWYWFYPYNYWGQGTQVTVSS”, the “polyreactivity (PSR sort gate)” value was “low polyreactivity”.

Turning to “QVQLVESGGGLVQAGGSLRISCAASGFTFHSYAMGWYIQAPGKERELVDAISYSGGSTYYADSVKGRFTISRDNAKNTVYLQMNSLKPEDSAVYYCAVLRYIYGYANDYWGQGTQLTVSS”, the “polyreactivity (PSR sort gate)” value was “low polyreactivity”.

For “QVQLVESGGGLVQAGGSLRISCAASGFTFRANAMGWYRQAPGKEREVVAAISQSGGRTYYADSVKARFTISRDNAKNTVYLQMNSLKPEDTAVYDCAAPDSAKELYYRMDYWGQGTQVTVSS”, the “polyreactivity (PSR sort gate)” value is “high polyreactivity”.

Take “QVQLVESGGGLVQAGGSLRISCAASGFTFSSYAMGRSRPAPGKERELVAGITIDGNTYYADSVKGRFTISRDNAKNTVYLQMNSLKPEDTAVYYCAAVAYYYGYDYWGQGTQVTVSS”: the “polyreactivity (PSR sort gate)” value is “low polyreactivity”.

For “QVQLVESGGGLVQAGGSLRISCAASGFTFSYNTMGWYRQAPGKERELVAAITGDVSTNYADSVKGRFTISRDNAKNTVYLQMNSLKPEDTAVYYCAARPNFPGYEDLSVDFEYWGQGTQGTVSS”, the “polyreactivity (PSR sort gate)” value is “low polyreactivity”.

In the case of “QVQLVESGGGLVQAGGSLRISCAASGFTFVINEMGWYRPAPGKERELVADITSGGDTYYADSVKGRFTISRDNAKNTVYLQMNSLKPEDTAVYYCAAYIYPDWIYLLYGYWGQGTQVTVSS”, the “polyreactivity (PSR sort gate)” value was “low polyreactivity”.

Regarding “QVQLVESGGGLVQAGGSLRISCAASGFTFYTNAMGWYIQAPGKERELVAAISSGGSTNYADSVKGRFTISRDNAKNTVYLQMNSLQPEDSAVYYCAARRGYWGQGTQVTVSS”, the “polyreactivity (PSR sort gate)” value was “high polyreactivity”.

Take “QVQLVESGGGLVQAGGSLRISCAASGGIFWTYAMGWYRQEPGKERELVAAISYSDGITYYADSVKGRFTISRDNAKNTVYFQMNSLKPEDTAVYYCAADPELAVPMYYWGQGTQVTVSS”: the “polyreactivity (PSR sort gate)” value was “low polyreactivity”.

For “QVQLVESGGGLVQAGGSLRISCAASGINFVTYAMGWYRKAPGKEREFVASINWITGNTYYADSVKGRFTISRDNAKNTVYLQMNSLKPEDTAVYYCATVDWSLYLGTPPSYYWGQGTQVTVSS”, the “polyreactivity (PSR sort gate)” value is recorded as “low polyreactivity”.

“QVQLVESGGGLVQAGGSLRISCAASGITFAWYAMGWYRQAPGKERELVATISAGGAITYYADSVKGRFTISRDNAKNTVYLQMNSLKPEDTAVYYCNAVTYGPYGWGQGTQVTVSS”: the “polyreactivity (PSR sort gate)” value is on record as “high polyreactivity”.

Turning to “QVQLVESGGGLVQAGGSLRISCAASGITFPVYTMGWYRQAPGKERELVAAITSSGGSTYYADSVKGRFTISRDNAKNTVYLQMNSLKPEDTAVYYCAARDYGRHHTYGYWGQGTQVTVSS”, the “polyreactivity (PSR sort gate)” value is recorded as “high polyreactivity”.

Consider “QVQLVESGGGLVQAGGSLRISCAASGITFVPNAMGWYRQAPGKERELVAAITGNGGRTYYADSVKGRFTISRDNAKNTVYLQMNSLKPEDTAVYYCNARKLYWAYTLRKYDYWGQGTQVTVSS”, for which the “polyreactivity (PSR sort gate)” value is listed as “high polyreactivity”.

For “QVQLVESGGGLVQAGGSLRISCAASGITLINDAMGWYRQAPGKERELVAAITYRGVSTYYADSVKGRFTISRDNAKNTVYLQMKSLKPEDTAVYYCAAGYYWQYTSSSAQYSYDYWGQGTQVTVSS”, the “polyreactivity (PSR sort gate)” value is given as “low polyreactivity”.

Take “QVQLVESGGGLVQAGGSLRISCAASGLIFAIYAMGWYRQAPGKERELVAAIRWSGASTYADSVKGRFTISRDNAKNTVYLQMNSLKAEDTAVYYCAADDLLDYDNWGQGTQVTVSS”: the “polyreactivity (PSR sort gate)” value is reported as “low polyreactivity”.

As to “QVQLVESGGGLVQAGGSLRISCAASGLIFYGYVMGWYRQAPGKEREFVAAITLSGGRTYYADSVKGRFTISRDNAKNTVYLQMNSLKPEDTAVYYCAARGPFRPYGAVGRQYDYWGQGTQVTVSS”, the “polyreactivity (PSR sort gate)” value was “high polyreactivity”.

“QVQLVESGGGLVQAGGSLRISCAASGLTFADNAMGWYRQAPGKERELVAAISRSGSRTYYADSVKGRFTISRDNAKNTVYLQMNSLKPEDTAVYYCNAVWWYYRVFDYWGQCTQVTVSS”: the “polyreactivity (PSR sort gate)” value is reported as “high polyreactivity”.

“QVQLVESGGGLVQAGGSLRISCAASGLTFTDYAIGWYRQAPGKERELVAGIWDGGSTYYADSVKGRFTISRDNAKNTVYLQMNSLKAEDTAVYSCAVRTSRLLREFGYSYWGQGTQVTVSS”: the “polyreactivity (PSR sort gate)” value is recorded as “high polyreactivity”.

For “QVQLVESGGGLVQAGGSLRISCAASGLTFTSNVMGWYRQAPGKERELVAAISSGGSTYYADSVKGRFTISRDNAKNTVYLQMNSLKPEDTAVYYCNTKLWGQYDYWGQGTQVTVSS”, the “polyreactivity (PSR sort gate)” value is recorded as “low polyreactivity”.

In the case of “QVQLVESGGGLVQAGGSLRISCAASGLTFYYNAMGWYRQAPGKDRELVATITWRGGRTYYADSVKGRFTISRDNAKNTVYLQMNCLKPEDTAVYYCAAGYFSQRLYLWFGYWGQGTQVTVSS”, the “polyreactivity (PSR sort gate)” value is reported as “high polyreactivity”.

As to “QVQLVESGGGLVQAGGSLRISCAASGNIFYRNGMGWYRQAPGKEREFVAAISRRGGSTYYADSVKGRFTISRDNAKNTVYLQMNSLKTEDTAVYYCATRYWPTNKGEYWGQGTQLTVSS”, the “polyreactivity (PSR sort gate)” value is given as “high polyreactivity”.

Consider “QVQLVESGGGLVQAGGSLRISCAASGNTFEHNAMGWYRQAPGKERELVAVISKSGGRTYYADSVKGRFTISRDNAKNTVYLQMNSLKPEDTAVYYCAKRSPFITWNGISYVEYDYWGPGTQVTVSS”, for which the “polyreactivity (PSR sort gate)” value is “low polyreactivity”.

As to “QVQLVESGGGLVQAGGSLRISCAASGNTFGDYAMGWYRQAPGKERELVAAISRSGGSTSYADSVKGRFTISRDNAKNTVYLQMNSLKPEDTAVYYCAGYWQRFGYDYWGQGTLVTVSS”, the “polyreactivity (PSR sort gate)” value was “low polyreactivity”.

In the case of “QVQLVESGGGLVQAGGSLRISCAASGRICIYYTMGWYRQAPGKDREFVAAITYSGGSTRYADSVKGRFTISRDNAKNTVYFQMNSLKTEVTAVYYCAAKFSVRRGFDYWGQGTQVTVSS”, the “polyreactivity (PSR sort gate)” value was “low polyreactivity”.

Consider “QVQLVESGGGLVQAGGSLRISCAASGRIFDYYAMGWYRQAPGKERELVAAISYSGGSTHYADSVKGRFTISRDNAKNTVYLQMNSLKPEDTAVYYCAGWAWSGVEYDYWGQGTQVTVSS”, for which the “polyreactivity (PSR sort gate)” value is recorded as “low polyreactivity”.

With “QVQLVESGGGLVQAGGSLRISCAASGRIFFTYVKGWYRQAPGKERELVATIRVSGGSTYYADSVKGRYTISRDNAKKTVYLQMNSLKPEDTAVYYCAASGAWWSLHYAGDFWGQGTQVTVSS”, the “polyreactivity (PSR sort gate)” value is recorded as “high polyreactivity”.

Turning to “QVQLVESGGGLVQAGGSLRISCAASGRIFGYYGMGWSRQAPGKERELVAAITSNAGRTYYADSVKGRFTISRDNSKNTVYLQMNSLKPEDTAVYYCAATSKGSYGRQGYDYWGQGTQVTVSS”, the “polyreactivity (PSR sort gate)” value is on record as “low polyreactivity”.

Take “QVQLVESGGGLVQAGGSLRISCAASGRIFIYNAMGWYRQAPGKERELVAAINRSGVSTHYADSVKGRFTISRDNAKNTVYLQMNSLIPEDTAVYYCARTVYGARSYDYWGQGTQVTVSS”: the “polyreactivity (PSR sort gate)” value is recorded as “low polyreactivity”.
